Molecular target: T1, Myc tagged TRPC3 (UniProt Q13507-3 1-848, limits assumed)
T1 construct: Expressed in HEK293T cells and tested in cell lysates; also called Myc-TRPC3
T1 sequence (looked up): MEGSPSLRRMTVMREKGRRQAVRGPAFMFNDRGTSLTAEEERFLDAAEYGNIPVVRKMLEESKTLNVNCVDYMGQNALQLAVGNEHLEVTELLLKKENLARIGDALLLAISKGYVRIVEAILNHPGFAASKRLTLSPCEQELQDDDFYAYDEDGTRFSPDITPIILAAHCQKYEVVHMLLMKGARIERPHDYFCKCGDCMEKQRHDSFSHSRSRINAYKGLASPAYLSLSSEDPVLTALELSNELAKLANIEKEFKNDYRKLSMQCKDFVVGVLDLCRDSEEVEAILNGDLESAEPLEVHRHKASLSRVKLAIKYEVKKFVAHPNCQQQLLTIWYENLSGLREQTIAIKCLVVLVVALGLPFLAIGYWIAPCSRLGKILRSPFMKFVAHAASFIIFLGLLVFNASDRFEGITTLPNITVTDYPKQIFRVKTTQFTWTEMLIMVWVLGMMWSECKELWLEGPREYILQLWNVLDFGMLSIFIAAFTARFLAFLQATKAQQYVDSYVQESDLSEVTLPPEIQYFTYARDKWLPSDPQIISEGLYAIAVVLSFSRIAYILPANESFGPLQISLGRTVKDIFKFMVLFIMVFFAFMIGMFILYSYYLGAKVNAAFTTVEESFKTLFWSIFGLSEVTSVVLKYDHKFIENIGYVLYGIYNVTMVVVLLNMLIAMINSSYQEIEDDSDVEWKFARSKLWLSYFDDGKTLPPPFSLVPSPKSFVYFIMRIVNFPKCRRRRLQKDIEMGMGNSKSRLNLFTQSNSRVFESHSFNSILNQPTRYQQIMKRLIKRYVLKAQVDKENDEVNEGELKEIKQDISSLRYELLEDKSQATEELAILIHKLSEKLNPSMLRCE
Assay: co-immunoprecipitation from lysates of HEK293T cells cotransfected with V5-SPLUNC1 and Myc-TRPC3
Method: Immunoprecipitation analysis was performed using cell lysates from HEK293T cells cotransfected with V5-SPLUNC1 and Myc-TRPC3. Data represents an n=3 blots.
Antibodies, immunoprecipitation, and immunoblot analysis: Rabbit anti-Orai1, anti-HA epitope (Santa Cruz), anti-GFP, anti-phospho-myosin light chain, anti-total myosin light chain, anti-GAPDH (glyceraldehyde-3-phosphate dehydrogenase) (Cell Signaling Technology); mouse anti-V5 epitope (Life Technologies), were purchased from commercial sources. To detect protein expression in total cell lysates, cells were lysed in Pierce® IP lysis buffer with 25 mM Tris-HCl pH 7.4, 150 mM NaCl, 1% NP-40, 1 mM EDTA, 5% glycerol, followed by SDS-polyacrylamide electrophoresis and immunoblot.

B1: V5-SPLUNC1 (other, not shown: small tags and cut ends)
chain: QFGGLPVPLDQTLPLNVNPALPLSPTGLAGSLTNALSNGLLSGGLLGILENLPLLDILKPGGGTSGGLLGGLLGKVTSVIPGLNNIIDIKVTDPQLLELGLVQSPDGHRLYVTIPLGIKLQVNTPLVGASLLRLAVKLDITAEILAVRDKQERIHLVLGDCTHSPGSLQISLLDGLGPLPIQGLLDSLTGILNKVLPELVQGNVCPLVNEVLRGLDITLVHDIVNMLIHGLQFVIKV
notes: Expressed in HEK293T cells and tested in cell lysates; The tag is placed first only because the name is printed that way; also called pcDNA3.1(+)-V5-SPLUNC1
- binding result: no binding
